Like-named read-outs stand apart in the source and are kept apart here. Values belong to the molecule of their own block, whether it stands above or below them.
Assays:
[1] = target: FITC–PHC2_(32–61) (human); test: fluorescence polarisation; 20 nM fluorescein-labelled PHC2 32-61 titrated with BMI1 UBL variants or MEL18 UBL; 50 mM bis tris pH 7.5, 50 mM NaCl, 1 mM TCEP, 0.01% BSA, 0.25% tween-20; 1 h incubation
[2] = target: BMI1_(121–235), BMI1 UBL domain, wild type (UniProt P35226); test: ITC; VP-ITC, 25 °C, 50 mM phosphate pH 6.5, 50 mM NaCl, 1 mM TCEP; BMI1 121-235 in the cell (22 or 9 μM), titrated with trx-PHC2 1-79 (164 μM) or PHC2 33-56 (100 μM)
[3] = target: FITC–PHC2_(32–61) (human); test: fluorescence polarisation; 20 nM fluorescein-labelled PHC2 32-61 titrated with BMI1 UBL variants or MEL18 UBL; 50 mM bis tris pH 7.5, 50 mM NaCl, 1 mM TCEP, 0.01% BSA, 0.25% tween-20; 1 h incubation; remark: listed apart in the source

Molecule: BMI1 UBL domain H174E (from UniProt P35226 121-235) (domain or fragment)
Kd [1]: 20.1 µM

Molecule: BMI1 UBL domain I212E (from UniProt P35226 121-235) (domain or fragment)
Kd [1]: 1.04 µM

Molecule: BMI1 UBL domain R165E (from UniProt P35226 121-235) (domain or fragment)
Kd [1]: 5.9 µM

Molecule: PHC2_(33–56) peptide
Kd [2]: 0.413 µM

B1: MEL18_(121-237) fragment, MEL18 UBL domain (domain or fragment)
chain: EKGALSDDEIVSLSIEFYEGARDRDEKKGPLENGDGDKEKTGVRFLRCPAAMTVMHLAKFLRNKMDVPSKYKVEVLYEDEPLKEYYTLMDIAYIYPWRRNGPLPLKYRVQPACKRLT
Kd [3]: 0.812 µM

Second part, the molecule after the results:

Kd [1]: 0.409 µM
Molecule: BMI1 UBL domain F189Q (from UniProt P35226 121-235) (domain or fragment)

Kd [1]: 17 µM
Molecule: BMI1 UBL domain M170E (from UniProt P35226 121-235) (domain or fragment)

Kd [1]: > 50 µM
Molecule: BMI1 UBL domain R165E/H174E double mutant (from UniProt P35226 121-235) (domain or fragment)

Kd [1]: 0.215 µM
Molecule: BMI1_(121–235), BMI1 UBL domain, wild type (from UniProt P35226 121-235) (domain or fragment)

Kd [2]: 0.398 µM
stoichiometry N [2]: 1
Molecule: trx-PHC2_(1–79) (domain or fragment)
